The target of this assay is T1, human BiP (Homo sapiens, UniProt P11021).
T1 construct: The human BiP gene except the signal peptide encoding region was obtained from Geneart (Germany); linker […]; made in house; host or cells: HEK 293E cells, transient transfection, PABC674 vector; secreted into the medium
The experiment in a line: ELISA: binding of BiP-FLAG-His to immobilized (misfolded) protein ligands. The note with it: ligands coated at 5 μg/ml; 6BB peptides and oxLDL 50 μg/ml. On the procedure:
Enzyme Linked Immunosorbent Assay for Testing of Chaperone Binding to Misfolded Proteins
Binding of chaperones to immobilized (misfolded) protein ligands was determined using an enzyme linked immuno sorbent assay (ELISA) approach. For this purpose 50 μl/well of potential ligands at indicated concentrations or coat buffer only for control and background measurement purposes, were coated overnight at 4° C. or coated for 1 h at room temperature, with motion, in 50 mM NaHCO3 pH 9.6 (coat buffer). In general, ligands were coated at 5 μg/ml, unless stated otherwise. For example, BiP binding peptides 6BB# and oxLDL were coated at 50 μg/ml. Native haemoglobin (Sigma-Aldrich, H7379), albumin, IgIV Gammagard and ovalbumin controls were prepared from lyophilized stocks. The controls were prepared by dissolving lyophilized proteins at 1 mg/ml in PBS upon resuspending by pipetting, followed by a 30 minutes period at the roller device, at room temperature. The protein solutions were centrifuged for 10 minutes at 16,000*g and diluted in coat buffer. […] After 5 washes with wash buffer followed by two washes with PBS, binding of antibodies was assessed. […] Plates were read at 450 nm. Triplicates were averaged and standard deviations calculated. […] Subsequently, sub-optimal concentrations of chaperones for binding to misfolded protein ligands are determined, and these concentrations are used for inhibition studies. […]
(In general: ELISA stands for enzyme-linked immunosorbent assay.)

T1 sequence (P11021 19-654): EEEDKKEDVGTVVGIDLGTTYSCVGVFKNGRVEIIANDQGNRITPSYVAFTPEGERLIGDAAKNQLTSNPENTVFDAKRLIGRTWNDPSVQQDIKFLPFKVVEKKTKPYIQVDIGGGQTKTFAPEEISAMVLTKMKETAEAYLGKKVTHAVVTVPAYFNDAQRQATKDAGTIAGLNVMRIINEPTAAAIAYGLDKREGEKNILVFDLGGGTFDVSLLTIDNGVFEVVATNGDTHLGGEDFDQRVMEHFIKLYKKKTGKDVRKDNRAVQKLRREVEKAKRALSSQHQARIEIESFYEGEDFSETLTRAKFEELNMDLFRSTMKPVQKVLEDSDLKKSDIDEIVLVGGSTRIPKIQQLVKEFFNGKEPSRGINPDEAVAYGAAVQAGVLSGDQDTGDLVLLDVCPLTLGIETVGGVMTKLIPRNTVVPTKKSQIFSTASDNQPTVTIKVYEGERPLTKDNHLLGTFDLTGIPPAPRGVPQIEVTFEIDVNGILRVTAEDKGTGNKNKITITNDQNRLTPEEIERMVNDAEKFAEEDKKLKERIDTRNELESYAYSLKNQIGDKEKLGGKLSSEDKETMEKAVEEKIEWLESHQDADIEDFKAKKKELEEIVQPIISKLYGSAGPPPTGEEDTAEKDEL

B1: dOVA standard: heat-denatured chicken ovalbumin (protein)
chain: GSIGAASMEFCFDVFKELKVHHANENIFYCPIAIMSALAMVYLGAKDSTRTQINKVVRFDKLPGFGDSIEAQCGTSVNVHSSLRDILNQITKPNDVYSFSLASRLYAEERYPILPEYLQCVKELYRGGLEPINFQTAADQARELINSWVESQTNGIIRNVLQPSSVDSQTAMVLVNAIVFKGLWEKAFKDEDTQAMPFRVTEQESKPVQMMYQIGLFRVASMASEKMKILELPFASGTMSMLVLLPDEVSGLEQLESIINFEKLTEWTSSNVMEERKIKVYLPRMKMEEKYNLTSVLMAMGITDVFSSSANLSGISSAESLKISQAVHAAHAEINEAGREVVGSAEAGVDAASVSEEFRADHPFLFCIKHIATNAVLFFGRCVSP
In the case of B1, the “Binding of concentration series of BiP to coated ligand” value is “has been established”.

Source of the values: patent US20100015126A1, “Methods of Binding of Cross-Beta Structures By Chaperones” (priority 2006, published 2010).
